{"source": "paper doi:10.1101/2022.09.26.507364", "about": "(bioRxiv, 2022)", "binders": {"B1": {"name": "Centi-3FTX-D09 (antibody, V domains shown)", "VH": "EVQLVESGGGFVQPGGSLRLSCAASGFTFSNFDMHWVRQSPGKGLEWVSGLDHSGGAHYAGSVKGRFTISREDAKNSLDLQMNNLRVDDTAVYFCVRGTLYHYTSGSYYSDAFDIWGQGTLVTVSS", "VL": "EIVLTQSPSSLSASVGDRVTITCQASQDISNYLNWYQQKPGKAPKLLIYAASSLESGVPSRFSGSGSGTDFTLTISSQQPEDFATYYCQQANSFPYTFGQGTKVEIK"}}, "target": "T1, Long neurotoxin 1 (3L21_OXYSC) from O. scutellatus scutellatus (coastal taipan), recombinant long 3FTX (Oxyuranus scutellatus scutellatus)", "T1 chain": "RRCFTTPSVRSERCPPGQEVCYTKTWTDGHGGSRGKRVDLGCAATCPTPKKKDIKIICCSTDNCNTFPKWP", "assay": "SPR"}
{"binder": "B1", "values": [{"measurement": "Kd", "result": 0.49, "unit": "nM"}]}
